Test results taken from the supplement of paper PMC6757056.
± gives the standard deviation of the averaged measurements.

B1: library; a variant is named by its letters at N, in order (parent)
chain: GCUGUCACCGAGAAACUGUGAAGUAUAUCUUAAACCUGGGCACUUAAAAGAUAUAUGGAGUUAGUAGUGCAACCUGCUCGGUCUGAUGAGUCCNNNNNNGGACGAAACAGC

Experiments:
cyclic di-GMP [1] = variants of: B1; assay: normalized RNA/DNA level without ligand (relative to sTRSVctl = 100) (log10 (% of sTRSVctl)); HEK293T; ligand: cyclic di-GMP (c-di-GMP-II aptamer); higher = less ribozyme self-cleavage, higher mRNA level; conditions: reporter: mCherry (pCS4076), ligand present: no
In short: (§1)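 RNA level was computed as RNA reads over DNA reads divided by a spiked-in non-cleaving sequence or by the top sequences, then scaled and log-transformed. Scaling was ×100 with log10, the top group was 25 sequences, and the threshold was ≥100 DNA reads. The reads came from HEK293T cells transfected at 4 µg per 6-well well with ribozyme switch library plasmids (mCherry, or eGFP in some ligand experiments). Total RNA was extracted with EDTA 72 h after transfection, with any ligand added 1 h before it.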

cyclic di-GMP [2] = variants of: B1; assay: normalized RNA/DNA level with ligand (relative to sTRSVctl = 100) (log10 (% of sTRSVctl)); HEK293T; ligand: cyclic di-GMP (c-di-GMP-II aptamer); ligand concentration (+) RNA-Seq: 1 mM; higher = less ribozyme self-cleavage, higher mRNA level; conditions: reporter: mCherry (pCS4076), ligand present: yes
In short: as §1

Variant	normalized RNA/DNA level without ligand (log10) (cyclic di-GMP [1])	normalized RNA/DNA level with ligand (log10) (cyclic di-GMP [2])
GCUGUCACCGAGAAACUGUGAAGUAUAUCUUAAACCUGGGCACUUAAAAGAUAUAUGGAGUUAGUAGUGCAACCUGCUCGGUCUGAUGAGUCCUUCAAGGGACGAAACAGC [UUCAAG]	1.689 ± 0.0038	1.82 ± 0.086
GCUGUCACCGAGAAACUGUGAAGUAUAUCUUAAACCUGGGCACUUAAAAGAUAUAUGGAGUUAGUAGUGCAACCUGCUCGGUCUGAUGAGUCCUUCAAAGGACGAAACAGC [UUCAAA]	1.611 ± 0.0055	1.79 ± 0.057
GCUGUCACCGAGAAACUGUGAAGUAUAUCUUAAACCUGGGCACUUAAAAGAUAUAUGGAGUUAGUAGUGCAACCUGCUCGGUCUGAUGAGUCCUUAUUUGGACGAAACAGC [UUAUUU]	1.75 ± 0.06	1.86 ± 0.17
GCUGUCACCGAGAAACUGUGAAGUAUAUCUUAAACCUGGGCACUUAAAAGAUAUAUGGAGUUAGUAGUGCAACCUGCUCGGUCUGAUGAGUCCGUCAAGGGACGAAACAGC [GUCAAG]	1.57 ± 0.031	1.75 ± 0.077
GCUGUCACCGAGAAACUGUGAAGUAUAUCUUAAACCUGGGCACUUAAAAGAUAUAUGGAGUUAGUAGUGCAACCUGCUCGGUCUGAUGAGUCCGUCAACGGACGAAACAGC [GUCAAC]	1.65 ± 0.055	1.79 ± 0.14
GCUGUCACCGAGAAACUGUGAAGUAUAUCUUAAACCUGGGCACUUAAAAGAUAUAUGGAGUUAGUAGUGCAACCUGCUCGGUCUGAUGAGUCCAUCAAAGGACGAAACAGC [AUCAAA]	1.57 ± 0.059	1.77 ± 0.074
GCUGUCACCGAGAAACUGUGAAGUAUAUCUUAAACCUGGGCACUUAAAAGAUAUAUGGAGUUAGUAGUGCAACCUGCUCGGUCUGAUGAGUCCAUCAAGGGACGAAACAGC [AUCAAG]	1.57 ± 0.1	1.76 ± 0.062
GCUGUCACCGAGAAACUGUGAAGUAUAUCUUAAACCUGGGCACUUAAAAGAUAUAUGGAGUUAGUAGUGCAACCUGCUCGGUCUGAUGAGUCCAUCAAUGGACGAAACAGC [AUCAAU]	1.64 ± 0.026	1.77 ± 0.15
GCUGUCACCGAGAAACUGUGAAGUAUAUCUUAAACCUGGGCACUUAAAAGAUAUAUGGAGUUAGUAGUGCAACCUGCUCGGUCUGAUGAGUCCAUCAACGGACGAAACAGC [AUCAAC]	1.61 ± 0.063	1.8 ± 0.09
GCUGUCACCGAGAAACUGUGAAGUAUAUCUUAAACCUGGGCACUUAAAAGAUAUAUGGAGUUAGUAGUGCAACCUGCUCGGUCUGAUGAGUCCCUCAAGGGACGAAACAGC [CUCAAG]	1.67 ± 0.022	1.84 ± 0.033
GCUGUCACCGAGAAACUGUGAAGUAUAUCUUAAACCUGGGCACUUAAAAGAUAUAUGGAGUUAGUAGUGCAACCUGCUCGGUCUGAUGAGUCCCUCAACGGACGAAACAGC [CUCAAC]	1.66 ± 0.033	1.8 ± 0.1
GCUGUCACCGAGAAACUGUGAAGUAUAUCUUAAACCUGGGCACUUAAAAGAUAUAUGGAGUUAGUAGUGCAACCUGCUCGGUCUGAUGAGUCCCUCAAAGGACGAAACAGC [CUCAAA]	1.38 ± 0.12	1.59 ± 0.076
GCUGUCACCGAGAAACUGUGAAGUAUAUCUUAAACCUGGGCACUUAAAAGAUAUAUGGAGUUAGUAGUGCAACCUGCUCGGUCUGAUGAGUCCCUCAAUGGACGAAACAGC [CUCAAU]	1.55 ± 0.057	1.71 ± 0.082
